The results in this text go back to paper PMC7485978, “A tyrosine phosphoregulatory system controls exopolysaccharide biosynthesis and biofilm formation in Vibrio cholerae” (PLoS Pathogens, 2020).

The target in assay [1] is VpsO-503^(E519A, R522A, R525A) kinase domain. Briefly: SEC-MALS; 25 uL of each VpsO protein at 1.5 mg/mL injected on a silica-based SEC analytical HPLC column; 25 mM Tris pH 8.0, 50 mM NaCl, 1 mM DTT; room temperature.
Assay [2] has as its target VpsU, low-molecular-weight phosphotyrosine protein phosphatase. Briefly: SEC.

The stoichiometry N is the number of molecules, sites or subunits per partner or assembly. The substance “VpsO-503^(E519A, R522A, R525A) kinase domain (domain or fragment)” returned a stoichiometry N in assay [1] of 2.

“VpsU, low-molecular-weight phosphotyrosine protein phosphatase (enzyme)” came in with a stoichiometry N in assay [2] of 2.
